Measured values from patent EP4671273A1 (Anaveon AG, dated 2025).
Residue numbers refer to the chain shown, from its start.

B1: EFY288 (bispecific antibody, human IgG1, kappa, lambda, L234A L235A)
heavy 1: EVQLLESGGGLVQPGGSLRLSCAASGFTFSINAMTWVRQAPGKGLEWVSTISGSGFSTYYADSLKGRFTISRDNSKNTLYLQMNSLRAEDTAVYYCAKEVYGDYWGQGTLVTVSSASTKGPSVFPLAPSSKSTSGGTAALGCLVKDYFPEPVTVSWNSGALTSGVHTFPAVLQSSGLYSLSSVVTVPSSSLGTQTYICNVNHKPSNTKVDKRVEPKSCDKTHTCPPCPAPEAAGGPSVFLFPPKPKDTLMISRTPEVTCVVVDVSHEDPEVKFNWYVDGVEVHNAKTKPREEQYNSTYRVVSVLTVLHQDWLNGKEYKCKVSNKALAAPIEKTISKAKGQPREPQVCTLPPSREEMTKNQVSLSCAVKGFYPSDIAVEWESNGQPENNYKTTPPVLDSDGSFFLVSKLTVDKSRWQQGNVFSCSVMHEALHNHYTQKSLSLSPGK
light 1: not shown
heavy 2: QVQLQESGPGLVKPSETLSLTCTVSGGSISSDYWGWIRQPPGKGLEWIGYISYRGSTNYNPSLKSRVTISVDTSRNQFSLKLSSVTAADTAVYYCARSAGVTDFDAWGQGTLVTVSSASTKGPSVFPLAPSSKSTSGGTAALGCLVKDYFPEPVTVSWNSGALTSGVHTFPAVLQSSGLYSLSSVVTVPSSSLGTQTYICNVNHKPSNTKVDKRVEPKSCDKTHTCPPCPAPEAAGGPSVFLFPPKPKDTLMISRTPEVTCVVVDVSHEDPEVKFNWYVDGVEVHNAKTKPREEQYNSTYRVVSVLTVLHQDWLNGKEYKCKVSNKALAAPIEKTISKAKGQPREPQVYTLPPCREEMTKNQVSLWCLVKGFYPSDIAVEWESNGQPENNYKTTPPVLDSDGSFFLYSKLTVDKSRWQQGNVFSCSVMHEALHNHYTQKSLSLSPGK
light 2: not shown
B2: ETR048 (bispecific antibody, human IgG1, kappa, lambda, L234A L235A)
heavy 1: B1 heavy 1
light 1: not shown
heavy 2: B1 heavy 2 with A106W
light 2: not shown
B3: CDP278 (bispecific antibody, human IgG1, kappa, lambda, L234A L235A)
heavy 1: B1 heavy 1
light 1: not shown
heavy 2: B1 heavy 2 with Y33F, Y53S, S65R, A106F
light 2: not shown
B4: GSV075 (bispecific antibody, human IgG1, kappa, lambda, L234A L235A)
heavy 1: B1 heavy 1
light 1: not shown
heavy 2: B1 heavy 2 with A106W
light 2: not shown
B5: GMH764 (bispecific antibody, human IgG1, kappa, lambda, L234A L235A)
heavy 1: B1 heavy 1
light 1: not shown
heavy 2: B1 heavy 2 with A106W
light 2: not shown
B6: ECW089 (bispecific antibody, human IgG1, kappa, lambda, L234A L235A)
heavy 1: B1 heavy 1
light 1: not shown
heavy 2: B1 heavy 2
light 2: not shown
B7: BBU753 (bispecific antibody, human IgG1, kappa, lambda, L234A L235A)
heavy 1: B1 heavy 1
light 1: not shown
heavy 2: B1 heavy 2 with Y33F, Y53S, S65R, T102A, A106F
light 2: not shown
B8: EJD551 (bispecific antibody, human IgG1, kappa, lambda, L234A L235A)
heavy 1: B1 heavy 1
light: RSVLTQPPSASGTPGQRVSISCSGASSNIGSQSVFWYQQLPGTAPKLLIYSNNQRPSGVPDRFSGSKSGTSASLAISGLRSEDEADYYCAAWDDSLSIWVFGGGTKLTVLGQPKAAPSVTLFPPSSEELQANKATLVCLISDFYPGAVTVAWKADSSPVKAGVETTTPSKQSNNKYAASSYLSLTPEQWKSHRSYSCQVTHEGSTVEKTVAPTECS
heavy 2: B1 heavy 2 with A106W
chain: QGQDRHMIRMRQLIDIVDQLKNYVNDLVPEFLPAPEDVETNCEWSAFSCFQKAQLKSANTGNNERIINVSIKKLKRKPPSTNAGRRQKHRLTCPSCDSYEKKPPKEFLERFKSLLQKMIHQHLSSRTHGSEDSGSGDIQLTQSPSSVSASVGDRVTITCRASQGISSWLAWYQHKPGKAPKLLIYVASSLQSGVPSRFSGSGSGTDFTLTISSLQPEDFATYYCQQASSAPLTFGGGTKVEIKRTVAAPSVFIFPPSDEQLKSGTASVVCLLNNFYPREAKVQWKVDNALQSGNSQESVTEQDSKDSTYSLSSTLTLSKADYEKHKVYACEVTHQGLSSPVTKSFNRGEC
B9: CDP451 (bispecific antibody, human IgG1, kappa, lambda, L234A L235A)
heavy 1: B1 heavy 1
light 1: not shown
heavy 2: B1 heavy 2 with Y33F, Y53S, S65R, A106F
light 2: not shown
B10: EDV817 (bispecific antibody, human IgG1, kappa, lambda, L234A L235A)
heavy 1: B1 heavy 1
light 1: not shown
heavy 2: B1 heavy 2
light 2: not shown
B11: XOW683 (bispecific antibody, human IgG1, kappa, lambda, L234A L235A)
heavy 1: B1 heavy 1
light 1: not shown
heavy 2: B1 heavy 2 with R54S
light 2: not shown
B12: CHU368 (bispecific antibody, human IgG1, kappa, lambda, L234A L235A)
heavy 1: B1 heavy 1
light 1: not shown
heavy 2: B1 heavy 2
light 2: not shown
B13: GWM570 (bispecific antibody, human IgG1, kappa, lambda, L234A L235A)
heavy 1: B1 heavy 1
light 1: not shown
heavy 2: B1 heavy 2 with Y33F, Y53S, S65R, A106F
light 2: not shown
B14: EXX354 (bispecific antibody, human IgG1, kappa, lambda, L234A L235A)
heavy 1: B1 heavy 1
light 1: not shown
heavy 2: not shown
light 2: DIQMTQSPSSVSASVGDRVTITCRASQGISSWLAWYQHKPGKAPKLLIYVASSLQSGVPSRFSGSGSGTDFTLTISSLQPEDFATYYCQQANSAPLTFGGGTKVEIKRTVAAPSVFIFPPSDEQLKSGTASVVCLLNNFYPREAKVQWKVDNALQSGNSQESVTEQDSKDSTYSLSSTLTLSKADYEKHKVYACEVTHQGLSSPVTKSFNRGEC
B15: ZBA121 (bispecific antibody, human IgG1, kappa, lambda, L234A L235A)
heavy 1: B1 heavy 1
light 1: not shown
heavy 2: not shown
light 2: B14 light 2 with A94F
B16: OUQ507 (bispecific antibody, human IgG1, kappa, lambda, L234A L235A)
heavy 1: B1 heavy 1
light 1: not shown
heavy 2: not shown
light 2: B14 light 2
B17: DHJ369 (bispecific antibody, human IgG1, kappa, lambda, L234A L235A)
heavy 1: B1 heavy 1
light 1: not shown
heavy 2: not shown
light 2: B14 light 2 with A94F
B18: JKJ112 (bispecific antibody, human IgG1, kappa, lambda, L234A L235A)
heavy 1: B1 heavy 1
light 1: not shown
heavy 2: not shown
light 2: B14 light 2 with A94F
B19: CMQ332 (bispecific antibody, human IgG1, kappa, lambda, L234A L235A)
heavy 1: B1 heavy 1
light 1: not shown
heavy 2: not shown
light 2: B14 light 2
B20: IFM656 (bispecific antibody, human IgG1, kappa, lambda, L234A L235A)
heavy 1: B1 heavy 1
light 1: not shown
heavy 2: not shown
light 2: B14 light 2 with M4L, N92S, A94F
B21: JAK529 (bispecific antibody, human IgG1, kappa, lambda, L234A L235A)
heavy 1: B1 heavy 1
light 1: not shown
heavy 2: not shown
light 2: B14 light 2
B22: SUR250 (bispecific antibody, human IgG1, kappa, lambda, L234A L235A)
heavy 1: B1 heavy 1
light 1: not shown
heavy 2: not shown
light 2: B14 light 2 with M4L, N92S, A94F

What follows are binders tested against T1, human IL-21 receptor (IL-21R) on cells (human, UniProt Q9HBE5 20-538; P31785 23-369) (assay: cell-based or functional assay).
T1 sequence (Q9HBE5 20-538, chain 1 of 2): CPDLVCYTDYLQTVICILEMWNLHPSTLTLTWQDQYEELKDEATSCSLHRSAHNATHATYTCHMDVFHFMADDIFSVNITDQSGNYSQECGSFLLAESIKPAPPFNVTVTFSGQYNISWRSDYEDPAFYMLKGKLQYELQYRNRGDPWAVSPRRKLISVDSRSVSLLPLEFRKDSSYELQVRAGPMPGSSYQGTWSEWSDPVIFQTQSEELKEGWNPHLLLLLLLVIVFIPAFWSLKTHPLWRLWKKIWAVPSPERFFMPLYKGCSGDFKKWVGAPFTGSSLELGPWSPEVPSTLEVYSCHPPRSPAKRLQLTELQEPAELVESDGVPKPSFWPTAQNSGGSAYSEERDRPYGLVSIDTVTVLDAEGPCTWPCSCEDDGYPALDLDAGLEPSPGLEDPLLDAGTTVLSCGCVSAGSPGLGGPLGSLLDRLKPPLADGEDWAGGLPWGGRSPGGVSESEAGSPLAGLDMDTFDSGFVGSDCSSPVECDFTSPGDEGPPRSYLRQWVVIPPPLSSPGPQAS
T1 sequence (P31785 23-369, chain 2 of 2): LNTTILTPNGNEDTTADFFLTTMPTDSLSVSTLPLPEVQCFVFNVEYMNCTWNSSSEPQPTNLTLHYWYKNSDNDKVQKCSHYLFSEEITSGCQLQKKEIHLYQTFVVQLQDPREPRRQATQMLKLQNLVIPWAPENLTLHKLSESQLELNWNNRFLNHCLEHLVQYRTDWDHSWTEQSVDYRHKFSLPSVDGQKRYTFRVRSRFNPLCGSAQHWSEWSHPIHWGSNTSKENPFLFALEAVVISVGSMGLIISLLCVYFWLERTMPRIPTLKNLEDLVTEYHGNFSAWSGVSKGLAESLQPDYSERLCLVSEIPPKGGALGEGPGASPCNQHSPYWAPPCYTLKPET

EC50B, pSTAT3+ Jurkat PD-1 cells, PD-1 blocked | EC50NB, pSTAT3+ Jurkat PD-1 cells | Binder
0.234 nM | 0.129 nM | B1
0.751 nM | 0.012 nM | B2
1.05 nM | 0.167 nM | B3
0.627 nM | 0.023 nM | B4
0.872 nM | 0.013 nM | B5
0.13 nM | 0.0963 nM | B6
0.312 nM | 0.015 nM | B7
1.06 nM | 0.016 nM | B8
1.24 nM | 0.106 nM | B9
0.13 nM | 0.0969 nM | B10
1.84 nM | 0.413 nM | B11
2.16 nM | 0.583 nM | B12
2.13 nM | 0.257 nM | B13

Target: T1, human IL-21 receptor (IL-21R) on cells
Experiment: cell-based or functional assay
Remark: another data set of the same source

EC50B, pSTAT3+ Jurkat PD-1 cells, PD-1 blocked | EC50NB, pSTAT3+ Jurkat PD-1 cells | Binder
0.28 nM | 0.039 nM | B14
103 nM | 0.86 nM | B15
0.42 nM | 0.024 nM | B16
2.56 nM | 0.24 nM | B17
17.2 nM | 0.52 nM | B18
0.034 nM | 0.012 nM | B19
15.9 nM | 0.21 nM | B20
0.44 nM | 0.027 nM | B21
5.36 nM | 0.08 nM | B22
